Test results: patent US5091518

Biological target: T1, Retinoic acid receptor alpha (RAR-alpha) (UniProt P10276)
T1 sequence: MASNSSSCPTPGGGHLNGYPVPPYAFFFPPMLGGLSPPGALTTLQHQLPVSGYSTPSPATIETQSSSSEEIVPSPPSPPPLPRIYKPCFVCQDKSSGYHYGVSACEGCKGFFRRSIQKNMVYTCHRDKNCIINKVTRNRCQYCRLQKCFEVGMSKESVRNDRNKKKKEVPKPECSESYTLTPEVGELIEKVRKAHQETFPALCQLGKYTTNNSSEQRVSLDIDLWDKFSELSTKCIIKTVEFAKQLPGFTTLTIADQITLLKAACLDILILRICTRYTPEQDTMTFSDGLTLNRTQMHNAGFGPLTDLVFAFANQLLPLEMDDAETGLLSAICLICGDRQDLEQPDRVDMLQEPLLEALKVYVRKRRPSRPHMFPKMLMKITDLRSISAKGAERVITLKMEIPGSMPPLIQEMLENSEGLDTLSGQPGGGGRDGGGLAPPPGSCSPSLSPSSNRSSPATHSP
Assay: cell_activity

Substance | activity (fold induction) (CV-1 cells, 10^-6 M retinoic acid, reverse orientation 9-fold) | activity (fold induction) (same as empty DMTV-LUC (2-fold))
183 bp SmaI fragment of RARb promoter | 10 | 
NR oligo (45 bp located 24 bp 3' of bRE1) |  | 2
